Measured values published in US20150196533A1, “METHOD FOR CONCURRENT TREATMENT OF PAIN AND DEPRESSION” (The General Hospital Corporation, priority 2012, published 2015).
“Also recorded” adds a separate entry of the source.

What was measured:
naive rats = test: Intra-hippocampal microinjection in naive rats: nociceptive and depressive behavior; type: in vivo, rat; settings: 0.1 μg once daily x 7 d into the left hippocampus of naive rats
Method: (§1) Under brief isoflurane anesthesia, a guide cannula (26 gauge, Plasticsone) was implanted just above the hippocampus (AP: −3.6 mm; left: +2.0 mm from Bregma; depth: −4.0 mm from skin) (Paxinos, G., and Watson, C. 1998. The rat brain in stertaxic coordinates. New York: Academic Press). An injection needle (33 gauge, Plasticsone) was inserted through the guide cannula and drug solution or vehicle (0.5 μl) was slowly injected over 5 min using a Hamilton syringe. Locations of the cannula placement were confirmed at the time of tissue harvest (data not shown).
Animals were habituated to a test setting (30-min session) for three consecutive days. Thermal withdrawal threshold was assessed using the Hargreaves' apparatus and method (Hargreaves, K., et al., 1988. A new and sensitive method for measuring thermal nociception in cutaneous hyperalgesia. Pain 32:77-88). Mechanical withdrawal threshold was assessed using von Frey filaments (Tal, M., and Bennett, G. J. 1994. Extra-territorial pain in rats with a peripheral mononeuropathy: mechano-hyperalgesia and mechano-allodynia in the territory of an uninjured nerve. Pain 57:375-382).
FST was performed according to the original method by Porsolt et al (Porsolt, R. D., Le, P. M., and Jalfre, M. 1977. Depression: a new animal model sensitive to antidepressant treatments. Nature 266:730-732). The total duration of immobility (non-swimming) within a 5-min session was recorded as immobility scores (in seconds) and compared among groups.

IDO1 = test: Intra-hippocampal microinjection in naive rats: hippocampal IDO1 mRNA (real-time PCR); type: in vivo, rat; settings: 0.1 μg once daily x 7 d into the left hippocampus of naive rats; P<0.05
Method: as §1
Total RNA was isolated from hippocampal samples using TRIzol reagent (Invitrogen). Four μg of total RNA was used to synthesize the first strand cDNA using SuperScript III kit (Invitrogen). Four μl of cDNA was put into 20 μl vessel with 1 μl of 20× TaqMan Gene Expression Assay. Taqman Gene Expression Assays (Applied Biosystems) containing primers and a Taqman probe were used to quantify each gene of interest. The genes examined were IL-6 (Rn01410330 m1, M26744.1) and IDO1 (Rn00576778 m1, AF312699.1) for rats and IL-6 (Mm00446190 m1, X54542.1) and IDO1 (Mm00492586 m1, M69109.1) for mice. […] The RNA expression of GAPDH was measured as control.

B1: IL-6: exogenous IL-6 (recombinant rat IL-6), proinflammatory cytokine (protein, UniProt P20607 25-211, looked up)
Interleukin-6: FPTSQVRRGDFTEDTTHNRPVYTTSQVGGLITYVLREILEMRKELCNGNSDCMNSDDALSENNLKLPEIQRNDGCFQTGYNQEICLLKICSGLLEFRFYLEFVKNNLQDNKKDKARVIQSNTETLVHIFKQEIKDSYKIVLPTPTSNALLMEKLESQKEWLRTKTIQLILKALEEFLKVTMRSTRQT
B1 was tested, and the “depressive behavior in forced swimming test (FIG. 9G)” value (naive rats; P<0.001) was “induced depressive behavior in forced swimming test”, the “thermal hyperalgesia on the right hindpaw (FIG. 9F)” value (naive rats; P<0.01) was “induced” and the “mechanical allodynia on the right hindpaw (FIG. 9E)” value (naive rats; P<0.05 vs vehicle) was “induced”. The “hippocampal IDO1 mRNA expression (FIG. 9H)” value (IDO1) was “increased IDO1 mRNA expression in the hippocampus; also recorded: up-regulated the hippocampal IDO1 mRNA expression”.
